Where “and” joins values, the source holds several entries; their conditions need not be identical. Equal entries are not always repeated.

We go through one substance from article PMC3490468.

Experiment [1] addresses truncated portal protein cn3 (E25-Q456) of bacteriophage CNPH82 (bacteriophage CNPH82). As to the kind of experiment: SEC-MALS; 60 ul of 0.5 mg/ml cn3 on a BioSep SEC-s3000 column; 20 mM Tris pH 7.5, 500 mM NaCl, 10 mM MgCl2; size of the oligomer in solution. Background: SEC sorts molecules by how far they enter the pores of the column.
Experiment [2] shares this target. Kind of experiment: self-rotation function of X-ray diffraction data; crystal in space group C222(1), data to 4.2 A; MOLREP, resolution range 5-10 A, integration radius 87 A; structure not solved.

With “truncated portal protein cn3 (E25-Q456) of bacteriophage CNPH82 (domain or fragment)”, the stoichiometry N (subunits per oligomer) in experiment [1] is 12.9 and 13; in experiment [2], 13.
